Laboratory results published in US20200339692A1 (JIANGSU HENGRUI MEDICINE, published 2020).
Where two headings read alike, the source gives them in different places.

Key:
[1] = target: T1, human PD-L1 (Cat. #10084-H08H, Sino Biological) (human, UniProt Q9NZQ7 19-239); experiment: SPR, Biacore X100, 1:1 Langmuir
T1 construct: Bought recombinant protein used in the Biacore test; also called hPDL1; hPD-L1
Experimental: (§1) According to the method in the manual of human anti-capture kit (Cat. A BR-1008-39, GE), the human anti-capture antibody was covalently coupled to biosensor chip CM5 (Cat. #BR-1000-12, GE) so that a certain amount of human PD-L1 (Cat. #10084-H08H, Sino Biological) monkey PD-L1 (Cat. #90251-C08H, Sino Biological), mouse PD-L1 (Cat. #50010-M08H, Sino Biological) were affinity captured. The affinity of PD-L1 antibody reacting with PD-L1 was measured with Biacore X100, GE instrument.

[2] = target: T2, monkey PD-L1 (Cat. #90251-C08H, Sino Biological) (monkey (cyno), UniProt G7PSE7 19-239); experiment: SPR, Biacore X100, 1:1 Langmuir
T2 construct: Bought recombinant protein used in the Biacore test; also called Monkey (cyno) PD-L1; Cyno PDL1
Experimental: as §1

[3] = target: T3, mouse PD-L1 (Cat. #50010-M08H, Sino Biological) (mouse, UniProt Q9EP73 19-238); experiment: SPR, Biacore X100
T3 construct: Bought recombinant protein used in the Biacore test
Experimental: as §1

[4] = target: T4, human PD-L1 (ligand blocking test) (human, UniProt Q9NZQ7 19-238, limits assumed); experiment: blocking of B7-1 binding to human PD-L1, PD-L1 1 ug/ml; competitor B7-1
[5] = target: T1, human PD-L1 (Cat. #10084-H08H, Sino …); experiment: SPR, Biacore X100, 1:1 Langmuir; remark: listed apart in the source
Experimental: as §1

[6] = target: T2, monkey PD-L1 (Cat. #90251-C08H, Sino …); experiment: SPR, Biacore X100, 1:1 Langmuir; remark: listed apart in the source
Experimental: as §1

[7] = target: T4, human PD-L1 (ligand blocking test); experiment: blocking of human PD-L1/PD-1 binding, PD-L1 10 ug/ml; competitor PD-1
[8] = target: T1, human PD-L1 (Cat. #10084-H08H, Sino …); experiment: SPR, Biacore X100
Experimental: as §1

[9] = target: T2, monkey PD-L1 (Cat. #90251-C08H, Sino …); experiment: SPR, Biacore X100
Experimental: as §1

[10] = target: mouse PD-L1 (ligand blocking test) (mouse, UniProt Q9EP73 19-238, limits assumed); experiment: blocking of mouse PD-L1/PD-1 binding, PD-L1 5 ug/ml; competitor PD-1
[11] = target: T3, mouse PD-L1 (Cat. #50010-M08H, Sino …); experiment: SPR, Biacore X100, 1:1 Langmuir
Experimental: as §1

T2 sequence (G7PSE7 entry or part of it C08H C08H): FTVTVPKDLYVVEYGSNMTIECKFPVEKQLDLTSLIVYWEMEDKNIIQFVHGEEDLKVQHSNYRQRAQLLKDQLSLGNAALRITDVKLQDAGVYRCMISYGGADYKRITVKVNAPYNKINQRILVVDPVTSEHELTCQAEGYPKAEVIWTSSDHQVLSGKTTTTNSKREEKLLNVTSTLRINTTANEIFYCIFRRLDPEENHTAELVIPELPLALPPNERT
T3 sequence (Q9EP73 19-238 limits assumed, stated change not applied): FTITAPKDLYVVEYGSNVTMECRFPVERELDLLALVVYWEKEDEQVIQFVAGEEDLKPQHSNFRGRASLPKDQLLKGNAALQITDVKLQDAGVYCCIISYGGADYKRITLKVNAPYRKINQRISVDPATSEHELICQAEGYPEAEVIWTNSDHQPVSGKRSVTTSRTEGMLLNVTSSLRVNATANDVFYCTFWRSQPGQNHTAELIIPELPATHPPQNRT
T1 sequence (Q9NZQ7 19-239 limits assumed): as the sequence (G7PSE7 entry or part of it C08H C08H) above, with T33A, S34A, N62S, Q68R, R82Q, L173F, A185T, I192T, L215H counted along it
T4 sequence (Q9NZQ7 19-238 limits assumed): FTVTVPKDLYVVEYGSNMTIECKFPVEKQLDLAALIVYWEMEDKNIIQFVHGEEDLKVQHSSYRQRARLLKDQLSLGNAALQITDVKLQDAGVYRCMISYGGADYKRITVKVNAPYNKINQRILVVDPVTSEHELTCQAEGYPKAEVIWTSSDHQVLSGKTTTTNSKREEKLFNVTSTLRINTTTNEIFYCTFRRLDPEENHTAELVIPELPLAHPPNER
Chain of mouse PD-L1 (ligand blocking test) (Q9EP73 19-238 limits assumed): as the sequence (Q9EP73 19-238 limits assumed, stated change not applied) above

Binder | IC50 [4] [ng/mL] | Kd [5] [nM] | koff [5] [s⁻¹] | kon [5] [M⁻¹ s⁻¹] | Kd [6] [nM] | koff [6] [s⁻¹] | kon [6] [M⁻¹ s⁻¹] | IC50 [7] [ng/mL] | IC50 [10] [ng/mL] | Kd [11] [nM] | koff [11] [s⁻¹] | kon [11] [M⁻¹ s⁻¹] | other results
H21L68 (antibody, human IgG1, kappa, V domains shown, also called 24D5 H21 and 24D5 L68) VH: QVQLVQSGAEVKKPGASVKVSCKASGYTFTDKWMMWVRQAPGQGLEWMGRITPSSGFAMYNEKFKNRVTMTRDTSTSTVYMELSSLRSEDTAVYYCARGGSSYDYFDYWGQGTTVTVSS VL: DIVLTQSPASLAVSPGQRATITCRASESVSIHGTHLMHWYQQKPGQPPKLLIYVASNVWSGVPARFSGSGSGTDFTLTINPVEAEDTANYYCQQSFEDPLTFGQGTKLEIKR | – | – | – | – | – | – | – | – | – | – | – | – | binding result [8]: no binding; binding result [9]: no binding
H6L11 (antibody, human IgG1, kappa, V domains shown, also called 9-2 H6 and 9-2 L11) VH: QVQLQESGPGLVKPSQTLSLTCTVSGGSISNDYWTWIRQHPGKGLEYIGFISRAGSTYNTPSLKGRVTISRDTSKNQFSLKLSSVTAADTAVYYCARSGGWLAPFDYWGRGTLVTVSS VL: DIVMTQSPDSLAVSLGERATINCKSSQSLFYHSNQKHSLAWYQQKPGQPPKLLIYGASTRESGVPDRFSGSGSGTDFTLTISSLQAEDVAVYYCQQYYGYPYTFGGGTKVEIKR | 1.69 | 0.227 | 0.000113 | 495000 | 0.318 | 0.000151 | 474000 | 0.29 | 1.23 | 18.1 | 0.0119 | 655000 | –
H5L11 (antibody, human IgG1, kappa, V domains shown, from the HRP00049 mutant library; also called 9-2 H5 and 9-2 L11) VH: QVQLQESGPGLVKPSQTLSLTCTVSGGSISDGSAYWSWIRQHPGKGLEYIGFISRAGSTYNTPSLKGRVTISRDTSKNQFSLKLSSVTAADTAVYYCARSGGWLAPFDYWGRGTLVTVSS VL: DIVMTQSPDSLAVSLGERATINCKSSQSLFYHSNQKHSLAWYQQKPGQPPKLLIYGASTRESGVPDRFSGSGSGTDFTLTISSLQAEDVAVYYCQQYYGYPYTFGGGTKVEIKR | 1.45 | 0.203 | 0.000124 | 611000 | 0.211 | 0.000121 | 572000 | 0.168 | 0.927 | 69.6 | 0.0564 | 811000 | –

Now from value to binder, other results behind:

IC50 [4] [ng/mL] | Kd [5] [nM] | koff [5] [s⁻¹] | kon [5] [M⁻¹ s⁻¹] | Kd [6] [nM] | koff [6] [s⁻¹] | kon [6] [M⁻¹ s⁻¹] | IC50 [7] [ng/mL] | IC50 [10] [ng/mL] | Kd [11] [nM] | koff [11] [s⁻¹] | kon [11] [M⁻¹ s⁻¹] | Binder | other results
1.23 | 0.0672 | 0.000116 | 1.73e+06 | 0.062 | 9.38e-05 | 1.51e+06 | 0.242 | – | – | – | – | HRP00052: 24D5(GF)IgG4(AA)(S228P) (antibody, Parent antibody from WO2017084495A1) heavy: not shown light: DIVLTQSPASLAVSPGQRATITCRASESVSIHGTHLMHWYQQKPGQPPKLLIYAASNLESGVPARFSGSGSGTDFTLTINPVEAEDTANYYCQQSFEDPLTFGQGTKLEIKRTVAAPSVFIFPPSDEQLKSGTASVVCLLNNFYPREAKVQWKVDNALQSGNSQESVTEQDSKDSTYSLSSTLTLSKADYEKHKVYACEVTHQGLSSPVTKSFNRGEC | Kd [1]: 0.11 nM; koff [1]: 0.000139 s⁻¹; kon [1]: 1.26e+06 M⁻¹ s⁻¹; Kd [2]: 0.114 nM; koff [2]: 0.000143 s⁻¹; kon [2]: 1.26e+06 M⁻¹ s⁻¹; binding result [3]: no binding
1.38 | 0.033 | 5.63e-05 | 1.71e+06 | 0.048 | 7.68e-05 | 1.6e+06 | 0.228 | – | – | – | – | H18L61 (antibody, human IgG1, kappa, V domains shown, also called 24D5 H18 and 24D5 L61) VH: QVQLVQSGAEVKKPGASVKVSCKASGYTFTSYWMHWVRQAPGQGLEWMGRISPSSGMAVYNEKFKNRVTMTRDTSTSTVYMELSSLRSEDTAVYYCARGGSSYDYFDYWGQGTTVTVSS VL: DIVLTQSPASLAVSPGQRATITCRASESVSIHGTHLMHWYQQKPGQPPKLLIYAASNLESGVPARFSGSGSGTDFTLTINPVEAEDTANYYCQQSFEDPLTFGQGTKLEIKR | –
